# Experimental data reported in the domain aggregation screens of Martell et al. (2025).
# Test: soluble fraction after stress (log2 fold change); higher = more stays soluble; pooled small domains, quantitative proteomics
# Settings: stress: pH 4
# How it was run: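 Aggregation propensity is estimated from the fold change in each domain's soluble amount after acid stress. Pooled small-domain libraries were stressed at pH 4, and higher log2 values mean more stayed soluble.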
row,Sequence,soluble fraction (log2)
1,HMIDENILSEEIKHYIETNNYAKDDKLPSERSLASLFNVSRALVRKSLISLVDVNYLYVKDKSGYYING,-0.52
2,HMSLQNTMANFAGGVLVLFLKPFKAGDYIVTKDGEGTVASIGLVYTTLLTIENKRIVIPNSSISNSPITN,-0.673
3,HMELPVAVPHTELSPEALRGVVESFVLREGTDYGERDVPFEAKVAQVIRQLERGEARIMFDPVTQSVQIVT,-0.411
4,HMFTEEQMDWLRLIKDHIVASLSILPEDLELTPFDRKGGLLGFYDAFGDEYEKILQEMNEELVA,-0.43
5,HMKTLNKRQQDIINLAREEGFVTVEHLSEYFKVTQQTIRRDLGYLSENLYLARTYGGAFFQS,-0.535
6,HMTVLPTEQDAKALVGLGEEEAAKIVEGNGWTYRIGSRDGEQFMLTEDFVTSRLTLGIEKAIVMTATI,-2.11
7,HMQVPWYQRLKEKRLEYGVSQNKLATHIGISRQYMSEIETGKVTPSDSLQATLFDILEQFNPDA,-0.74
8,HMDYNMEEWSLTADQLKSGDTILILNLGKTATLLESTRGKKNVRVRMGNIKTIVETSSIRGNPHQ,-0.729
9,HMQPADYSDLYAAAKSAGEADMRAAFALTDKQERTAAVNAARETIKAALSEEQLADANLGSALKKLEAGV,-0.261
10,HMYMKMNDRIRSRRKELKMTQSVLAKLVGVNRVTITGWESGDYKPGGENLQALAAALEKTPQWLLDGKD,≥ 0.43
11,HMSADEVSQQLTSEQTKSKSYQALLQAYAAYQQKSFDDAALELQNVQQDVLSDSQKTIYNTISQAVNS,-0.0227
12,HMISQATMEKMGLTNRERQLVDFIVRGASNQEISEKMFISINTVKIHVSNIFRKAGVRSRTELMDKYP,-0.693
13,HMVSLEEIINDLTSRIQTAVKMRFSDFVQNRKERVGVIVSFLGMLELVKQGIIDIKQEGHFADIEMETA,-0.58
14,HMDTNVKLLSPKQADFFASKLANNQNFSSKFAKVGEDMQPFIERISSELQQDISQVIVYMPYLLESGFKQ,-0.126
15,HMLPLLEYLDPFTGKKTYTYLNPDTQHPIFTYYSYQDDKTGRTAYSYIDPLTGKAVNSDEPPMDILYD,-1.34
16,HMAGTWQDQGNGQWKYQNDDGSYATGWIEDSGKSYYLDANGIMLANTTTPDGKQVGPDGALIP,-1.69
17,HMIDTTKILPGQEFKNMQELSVALTGQKMPAGKGYVLQQEKFKLYFSWKKITGTHKLIIDEIYEEPKT,-0.573
18,HMREQAHEVAGKLGYPVMVKASAGGGGKGIRIVRTEDELDQAFEAAQSETKAAFGDDQMYMEKVI,-0.176
19,HMKNEFRVYPNPANKEIVTFNQTQDIEVYDTLGKLVLKAKNTNTLDTKSFHSGIYFIKTGSGLTRKLVV,≥ 0.43
20,HMGAITGLQSRVAFLKGQGTITDAEAKTAMAFLPDPTDSKEVKIAKIGQAREYIMSLIENRA,-0.0578
21,HMSISEFNYTEFNGLVEKGQVSEVTISGREIEGRLTSGESFKTYSPETDNSALVGDLLKNNVKINGKP,-0.158
22,HMGGHLAYGFSRRFGLLIDEQQGEPVIIARPDYSPVHYAEARRIVGQPAALRVVDEQAFNQLLQSQQESGA,-0.383
23,HMDEQKNREIALIENIQREDLNPYEKALGIRNLMDKYGLTQEEVSKRIGKSRSAVSNTVRILNLAPDVL,-0.0309
24,HMSGIGTTIKMLRENKNISQEELGNVLGVSDKTISSWEINRTEPKMGIVQLLADYFGVSTDYLIKG,-0.201
25,HMAAENAVGARVKALREAMDLSLRDLSERSGVSPTMLSQVERGSTSPTLAVAEKIAAGLDLSLSQLLRL,0.124
26,HMRNDIFDQLTEREMQILQEVAKGYRNKQIADHLFISESTVKVHMKSLLKKLQVPSRTAATVLYLERYG,-0.406
27,HMRELPKRPEIRYAAGDRVFHKAFGNGLVKQVAQTAGGARVTVDFGEGKGVKTFAGDAPMIKI,0.326
28,HMKLSLKTQVKEYLLSYIRDKKLQPGDRLLTQRELAEMLHTSQKVAQMALNSLEEEGIIIRRLGSGSFLAR,-0.227

row,Sequence,soluble fraction (log2)
1,HMLEQEQFESKLLKAINNINETQRIAFLMHRIDGKKYAEIASELNISVKAVEKRIHLALIELKKEIENF,-0.396
2,HMRMSLDEAKAVVLPIGEYKGRNMGEVLAIKPELIDFYASQKFNSSKYPYLKEAAQVILENQ,0.0219
3,HMEIEETKKNSRTKIPENFDYKLINGLSNEIRAKLELIRPIDLLQASRIDGMTPAALTLVHLWIKKYSG,-0.419
4,HMDAAEVEATARAMLRRSALNLLAQREQTAFELKQKLSRRFPEQAALLDEVIERLQEQGLQDDTR,-0.527
5,HMEDDRMLVWFFRKSIQNGAQSEAEGRPIFEGKDYVHIQQPGERDYIEREAHQGDIGRWPRHWQAYQEGR,-0.359
6,HMGLNNVSDILRLDFNSFKKKFDKLPSGYKNSVVEQAALMIKSGELDSIKIKDYIEKSMGIELDI,-0.0393
7,HMQSEESTHIGERMLNQALRAMHVEPSAVKEKQWEKLIRDYSVKNKQDILTDIGLGKRQSVMVAHQLLAI,-0.028
8,HMKHVDLDNNERYIYGIIGSTKIHVDEVVEKSGMETKHVMAILTNLELKEAIKGIPGGFYLR,-1.19
9,HMLIPADETEAKVLSVLSREPLHVDEIRNQAGLPIEKISATLALMELKGMVRQVGGMNYVSV,-0.48
10,HMDVSPVRLIREARGLSQVEVAKAAGLSRAAYQNIEVGKTVPRASTMVNIARALGVSMDDLLAPV,0.0681
11,HMKYEFEFPYWSNKEAKHMIVTINYPNGTRATASIQDNDGSNPDYKRIMEEFGEEQIDANTEEGLKRR,-0.816
12,HMWPDDAIALPTRDGQDVGGAQERTMLAFASGAAGIRTVEEINPDGSITRLRTRYGWPTFETEGARTAAAE,-0.221
13,HMGKIINMSKVKQVLRLHTQGVSNRRIALDLGLYKGTVNSYIRKIKDHGYDIAEVLKLDDPVLESKLFA,0.268
14,HMRFDADELQKAYDLFDADENTPFKTIKQAYYALARRHHPDKNGDQEYFKVINNAFQLIQEHRRRRDN,-0.412
15,HMKLHQDLQIKVIDAANNKVEFIDTATGTSLATRTLDVNGVSKARGFEATLYGVVEDNDVFHIA,-0.116
16,HMAGRKMMVMANNLSVRKSANSLSEKLADLSRGDTVEYISSTNGWNKVRYKGQIGYVSSYYLKDTGEEVE,0.216
17,HMGKIILLFSDDDGVFDTALYRVRNYDGHRFAQSLGNAEMKWRHSEDEYFDFVLTSLREDGYDIEEIE,-0.686
18,HMGGEEKALLFGDVDIREAGEITQRLEQAEIPYELRGDGSSIFVPRSRVMEARMMISADGLL,-0.901
19,HMTSPLQIHPNPATKHIELGLESPEVVLIKDINGKTVYQELVAPNQYIDIEHLKNGIYFIESKNKFGKLIK,0.29
20,HMNAELSTVQAAEVLNVSRPFLIKLLEDGAIPHRKVGKHRRVRMEDVMSYKAAIDTEREAVLDQLAA,-0.722
21,HMKKAITMGDIITVKELSEKIGIQVAEIIKKLMGLGILATINKELDYDTANVIASEFHIELERK,0.0872
22,HMYHNKFADLAGFIAFNEKNEEIFTFGKYKGQNVKEVFQRDIGYYGWLQNADFPLYTKKVFTAIQLRSR,-1.07
23,HMKNIINFIVKEDDNNKRVDMILANHDKSLSRTRVKNLILDSKLKINERIVQDPSIKTKLNDKIELEIVEP,0.251
24,HMQKKYLAVKEYLLEQINSGAYQPDEPIPPEREMAAMLGVNRMTLRRAVEELMYEGLLIRKKGSGTFLTK,-0.714
25,HMSEPQYKVLFSNLDDRDGGAIVTALGAMNVPYKYNDTGTALLVPADRVYDARLQLASQGLPRG,0.172
26,HMKSARQIAILEIIAEKSIETQEDLADALRLRGFQVTQATVSRDIKELRLVKALAPDGTYRYATAEK,0.264
27,HMGNEVMYRQDLSEQELLSFIKKYTGQDEVTHIVVGAPKQRDNTPSPVETKITPFVVQLKAQFPDVNVV,-0.217
